Laboratory results published in patent publication US20250332299A1, “COMPOUND TARGETING SSTR2, PREPARATION METHOD THEREFOR AND USE THEREOF” (YANTAI LANNACHENG BIOTECHNOLOGY CO., LTD., priority 2022, published 2025).

Columns and labels:
[1] = in vivo; cited from earlier work
AR42J tumor = assay: MicroPET imaging in AR42J tumor-bearing mice; assay type: in vivo; conditions: unlabeled compound injected simultaneously with ^68Ga-DOTA-TATE, PET
Description: ^68Ga-TATE-EB-01 was prepared according to the method in Example 2. […] Results are shown in FIG. 4, FIG. 5, FIG. 6 and FIG. 7.

in vivo = assay: in vivo; parameters: species or system mice; conditions: mouse, iv, 1.48 Mbq, total radioactivity
Description: Organs and tumor tissues of interest were collected and weighed. The radioactivity was detected by a γ counter, and biological distribution results were calculated as a percent of an injection dose per gram of tissue (% ID/g).

## Cc1cc(-c2ccc(NC(=O)[C@H](CCCCNC(=O)CCN3C(=O)CC(SCCC(=O)N[C@H](Cc4ccccc4)C(=O)N[C@H]4CSSC[C@@H](C(=O)N[C@H](C(=O)O)[C@@H](C)O)NC(=O)[C@H]([C@@H](C)O)NC(=O)[C@H](CCCCN)NC(=O)[C@@H](Cc5c[nH]c6ccccc56)NC(=O)[C@H](Cc5ccc(O)cc5)NC4=O)C3=O)NC(=O)CN3CCN(CC(=O)O)CCN(CC(=O)O)CCN(CC(=O)O)CC3)c(C)c2)ccc1N=Nc1ccc2c(S(=O)(=O)O)cc(S(=O)(=O)O)c(N)c2c1O (single isomer, unassigned) [^177Lu-EB-TATE, metal not drawn]
[1]
  half-life in the blood: 9.47 h
  half-life in the blood relative to Lutathera: about 4 times

## Cc1cc(-c2ccc(NC(=O)[C@H](CCCCNC(=O)CCOCCOCCC(=O)N[C@H](Cc3ccccc3)C(=O)N[C@H]3CSSC[C@@H](C(=O)N[C@H](C(=O)O)[C@@H](C)O)NC(=O)[C@H]([C@@H](C)O)NC(=O)[C@H](CCCCN)NC(=O)[C@@H](Cc4c[nH]c5ccccc45)NC(=O)[C@H](Cc4ccc(O)cc4)NC3=O)NC(=O)CN3CCN(CC(=O)O)CCN(CC(=O)O)CCN(CC(=O)O)CC3)c(C)c2)ccc1N=Nc1ccc2c(S(=O)(=O)O)cc(S(=O)(=O)O)c(N)c2c1O (single isomer, unassigned) [TATE-EB-01]
AR42J tumor
  inhibition of tumor uptake of ^68Ga-DOTA-TATE: significantly inhibit tumor uptake

## Cc1cc(-c2ccc(NC(=O)[C@H](CCCCNC(=O)CCOCCOCCC(=O)N[C@H](Cc3ccccc3)C(=O)N[C@H]3CSSC[C@@H](C(=O)N[C@H](C(=O)O)[C@@H](C)O)NC(=O)[C@H]([C@@H](C)O)NC(=O)[C@H](CCCCN)NC(=O)[C@@H](Cc4c[nH]c5ccccc45)NC(=O)[C@H](Cc4ccc(O)cc4)NC3=O)NC(=O)CN3CCN(CC(=O)O)CCN(CC(=O)O)CCN(CC(=O)O)CC3)c(C)c2)ccc1N=Nc1ccc2c(S(=O)(=O)O)cc(S(=O)(=O)O)c(N)c2c1O [^177Lu-TATE-EB-01, metal not drawn]
In vivo
  tissue uptake at 72 h: 158 ± 20 %ID/g
  tissue uptake at 96 h: 112 ± 20.6 %ID/g
